Measured values reported in patent US20260097113A1 (Pfizer, published 2026).

T1: RSV F protein of subtype A comprising a polypeptide of SEQ ID NO: 1 and a polypeptide of SEQ ID NO: 2 (RSV subtype A, UniProt P11209 137-513; P03420 26-109)
T1 construct: Stabilized prefusion F trimer made of three F2-F1 heterodimers; Produced recombinantly in CHO cells; also called RSV A; RSVA
T1 chain 1: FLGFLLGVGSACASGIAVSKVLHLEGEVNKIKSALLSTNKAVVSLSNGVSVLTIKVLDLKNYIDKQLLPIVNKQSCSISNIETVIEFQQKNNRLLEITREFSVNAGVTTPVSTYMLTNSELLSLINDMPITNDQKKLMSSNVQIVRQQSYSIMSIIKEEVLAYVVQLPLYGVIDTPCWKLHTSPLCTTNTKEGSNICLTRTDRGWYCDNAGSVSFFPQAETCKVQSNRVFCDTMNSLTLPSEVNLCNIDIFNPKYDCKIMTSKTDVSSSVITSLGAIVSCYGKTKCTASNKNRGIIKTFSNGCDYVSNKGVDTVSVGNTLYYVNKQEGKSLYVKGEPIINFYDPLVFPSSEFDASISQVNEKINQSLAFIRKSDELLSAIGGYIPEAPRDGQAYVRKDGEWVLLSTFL
T1 chain 2: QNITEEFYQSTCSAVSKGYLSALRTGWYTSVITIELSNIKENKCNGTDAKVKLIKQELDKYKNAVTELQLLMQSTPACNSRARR


Experiments:
[1] = target: RSV A + RSV B bivalent composition (RSV subtype A; RSV subtype B); experiment: AM14 Fab titration by SEC; High-Slow 1 cycle; 8 M 2-8°C
[2] = target: RSV A + RSV B bivalent composition (RSV subtype A; RSV subtype B); experiment: AM14 Fab titration by SEC; High-Slow 2 cycle; T0
[3] = target: RSV A + RSV B bivalent composition (RSV subtype A; RSV subtype B); experiment: AM14 Fab titration by SEC; Low-Fast cycle; 8 M 25°C
[4] = target: RSV A + RSV B bivalent composition (RSV subtype A; RSV subtype B); experiment: AM14 Fab titration by SEC; Target cycle; 3 M 2-8°C
[5] = target: RSV A + RSV B bivalent composition (RSV subtype A; RSV subtype B); experiment: AM14 Fab titration by SEC; High-Slow 1 cycle; 1 M 25°C (second value)
[6] = target: RSV A + RSV B bivalent composition (RSV subtype A; RSV subtype B); experiment: AM14 Fab titration by SEC; Target cycle; 1 M 40°C
[7] = target: RSV A + RSV B bivalent composition (RSV subtype A; RSV subtype B); experiment: AM14 Fab titration by SEC; Target cycle; T0
[8] = target: T1, RSV F protein of subtype A comprising a …; experiment: AM14 ELISA; F4 (pH 6, 50 mM NaCl, 4.5% sucrose); 2 wk 5°C
[9] = target: T1, RSV F protein of subtype A comprising a …; experiment: AM14 ELISA; F17 (pH 7, 50 mM NaCl, 4.5% trehalose); 1 wk 5°C
[10] = target: T1, RSV F protein of subtype A comprising a …; experiment: AM14 ELISA; F5 (pH 6, 100 mM NaCl, 9.0% sucrose); 2 wk 25°C
[11] = target: T1, RSV F protein of subtype A comprising a …; experiment: AM14 ELISA; F1 (pH 8, 100 mM NaCl, 0% sucrose); 2 wk 25°C
[12] = target: T1, RSV F protein of subtype A comprising a …; experiment: AM14 ELISA; F7 (pH 6, 100 mM NaCl, 0% sucrose); 2 wk 25°C
[13] = target: T1, RSV F protein of subtype A comprising a …; experiment: AM14 ELISA; F9 (pH 8, 50 mM NaCl, 4.5% sucrose); 2 wk 5°C
[14] = target: T1, RSV F protein of subtype A comprising a …; experiment: AM14 ELISA; F8 (pH 7, 50 mM NaCl, 0% sucrose); 1 wk 5°C
[15] = target: T1, RSV F protein of subtype A comprising a …; experiment: AM14 ELISA; F3 (pH 8, 0 mM NaCl, 9% sucrose); 1 wk 5°C
[16] = target: T1, RSV F protein of subtype A comprising a …; experiment: AM14 ELISA; F14 (pH 7, 50 mM NaCl, 4.5% sucrose); 2 wk 25°C
[17] = target: T1, RSV F protein of subtype A comprising a …; experiment: AM14 ELISA; F8 (pH 7, 50 mM NaCl, 0% sucrose); 2 wk 25°C
[18] = target: T1, RSV F protein of subtype A comprising a …; experiment: AM14 ELISA; F4 (pH 6, 50 mM NaCl, 4.5% sucrose); T0

Row | Molecule | Prefusion Content (%) [1] [%] | Prefusion Content (%) [2] [%] | Prefusion Content (%) [3] [%] | Prefusion Content (%) [4] [%] | Prefusion Content (%) [5] [%] | Prefusion Content (%) [6] [%] | Prefusion Content (%) [7] [%] | AM14 prefusion content (%), relative to standard [8] [%] | AM14 prefusion content (%), relative to standard [9] [%] | AM14 prefusion content (%), relative to standard [10] [%] | AM14 prefusion content (%), relative to standard [11] [%] | AM14 prefusion content (%), relative to standard [12] [%] | AM14 prefusion content (%), relative to standard [13] [%] | AM14 prefusion content (%), relative to standard [14] [%] | AM14 prefusion content (%), relative to standard [15] [%] | AM14 prefusion content (%), relative to standard [16] [%] | AM14 prefusion content (%), relative to standard [17] [%] | AM14 prefusion content (%), relative to standard [18] [%]
1 | AM14 Fab | 69 | 61 | 76 | 69 | 65 | 64 | 68 |  |  |  |  |  |  |  |  |  |  | 
2 | AM14 (trimeric prefusion specific antibody of the AM14 ELISA) (antibody, V domains shown, Antibody as used in the AM14 ELISA, detected with an HRP-labeled secondary antibody) VH: EVQLVESGGGVVQPGRSLRLSCAASGFSFSHYAMHWVRQAPGKGLEWVAVISYDGENTYYADSVKGRFSISRDNSKNTVSLQMNSLRPEDTALYYCARDRIVDDYYYYGMDVWGQGATVTVSS VL: DIQMTQSPSSLSASVGDRVTITCQASQDIKKYLNWYHQKPGKVPELLMHDASNLETGVPSRFSGRGSGTDFTLTISSLQPEDIGTYYCQQYDNLPPLTFGGGTKVEIKR |  |  |  |  |  |  |  | 62 | 59 | 98 | 93 | 55 | 92 | 99 | 104 | 78 | 85 | 57
